Reference: patent US20200376136A1

Molecular target: human six-transmembrane epithelial antigen of prostate 2 (STEAP2) (human) (UniProt Q8NFT2)
Experiment: FACS on HEK293 cells (low STEAP2), MFI fold above unstained, average at 100-300 nM antibody

Chain of human six-transmembrane epithelial antigen of prostate 2 (STEAP2) (human) (Q8NFT2 whole entry): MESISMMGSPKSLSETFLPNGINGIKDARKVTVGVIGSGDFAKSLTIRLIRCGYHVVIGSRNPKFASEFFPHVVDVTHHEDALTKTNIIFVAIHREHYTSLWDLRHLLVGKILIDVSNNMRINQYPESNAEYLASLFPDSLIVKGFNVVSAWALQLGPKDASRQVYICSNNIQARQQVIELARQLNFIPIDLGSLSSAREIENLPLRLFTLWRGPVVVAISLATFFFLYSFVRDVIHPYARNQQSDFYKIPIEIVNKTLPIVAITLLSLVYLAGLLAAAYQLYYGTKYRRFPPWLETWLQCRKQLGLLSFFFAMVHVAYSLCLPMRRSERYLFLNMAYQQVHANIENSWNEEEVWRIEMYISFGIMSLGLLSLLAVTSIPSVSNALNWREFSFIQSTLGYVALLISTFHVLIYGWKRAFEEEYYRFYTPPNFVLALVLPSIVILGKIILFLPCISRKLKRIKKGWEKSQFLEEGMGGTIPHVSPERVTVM

Substance	Avg F.A.B (fold above background) (fold above background)
hIgG1 Isotype Control-I (antibody)	1
hIgG1 Isotype Control-II (antibody)	1.7
